{"source": "paper PMC8601601", "key": {"[1]": {"target": "human ACE2 with a C-terminal FLAG tag, on transduced HeLa cells (human) (UniProt Q9BYF1)", "experiment": "flow cytometry on cells"}, "[2]": {"target": "mink ACE2 with a C-terminal FLAG tag, on transduced HeLa cells (mink (Neovison vison))", "experiment": "flow cytometry on cells"}}}
{"substance": "WT S1 domain of SARS-CoV-2 spike C-terminally fused with a His tag (domain or fragment)", "values": [{"measurement": "percent of ACE2-expressing cells positive for S1-Fc", "setting": "[1]", "result": 86.5, "unit": "%"}, {"measurement": "percent of ACE2-expressing cells positive for S1-Fc", "setting": "[2]", "result": 1.2, "unit": "%"}]}
